Molecular target: VEGF (isoform not given)
Assay: cell-based or functional assay

Row | Substance | HUVEC tube formation on Matrigel, percent inhibition at 50 µg/ml [%] | HUVEC chemotactic migration (Transwell), percent blocked at 10 µg FP3′ [%] | HUVEC chemotactic migration (Transwell), percent blocked at 20 µg FP3′ [%] | VEGF-induced cell proliferation, percent blocked at 10.7 nM FP3′ [%] | rat aortic ring microvessel sprouting, percent inhibition at 100 µg/ml [%] | rat aortic ring microvessel sprouting, percent inhibition at 200 µg/ml [%] | rat aortic ring vessel outgrowth, more inhibition than Avastin [%]
1 | Avastin (bevacizumab) (antibody) | 41.3 | – | – | – | – | – | –
2 | FP3′ (FLTd2-KDRd3-KDRd4-Fc chimeric fusion protein) (Fc fusion) | 72.3 | 78.3 | 94.7 | 82.6 | 70.4 | 90 | 15 to 33
